In US20220048967A1 (published 2022):
Numbered stars: 1 amine (or outer) side, 2 acyl side, 3 side chain; on linkers, the order of the positions; unused ones are H or OH. Square brackets hold non-standard residues; d marks the D form. Side chains are listed from the residue outwards. Ends that are not written are not given here. * marks the point of attachment. C20 diacid = O=C(O)CCCCCCCCCCCCCCCCCCC(=O)*; γGlu = O=C(O)[C@H](CCC(=O)[*:2])N[*:1]; αMeL = CC(C)C[C@](C)(N)C(=O)O; Dab = NCC[C@H](N)C(=O)O; Dap = NC[C@H](N)C(=O)O; AEEA = NCCOCCOCC(=O)O; Aib = CC(C)(N)C(=O)O

Legend:
human GLP-1 receptor = human GLP-1 receptor (human, UniProt P43220 24-463); test: cell-based or functional assay
[1] = target: Pro-Link-tagged Human GLP-1R (human, UniProt P43220 24-463); test: cell-based or functional assay

Row | Binder | hGLP1R GTPgS % Top (human GLP-1 receptor) [%] | hGLP1R GTPgS Rel EC50 (human GLP-1 receptor) [nM] | hGLP1R B-Arrestin2 % Top [1] [%] | hGLP1R B-Arrestin2 Rel EC50 [1] [nM]
1 | XXEGTFTSDYSIXLDXKAQXEFIEYLIAGGPSSG (D-Tyr1, Aib2, αMeL13, Orn16, K17 conjugated to (2-[2-(2-Amino-ethoxy)-ethoxy]-acetyl)2-(γ-Glu)-CO-(CH2)18-CO2H, Aib20, C-terminal amide (NH2)) [Example 370] | 63.7 | 0.428 | 23 | 9.9
2 | [dY][Aib]EGTFTSDYSI[αMeL]LD[Dap]K([AEEA-AEEA-γGlu-C20 diacid])AQ[Aib]EFIEYLIAGGPSSGAPPPS-NH2 (N-terminus assumed; SMILES CC[C@H](C)[C@H](NC(=O)[C@H](CC(C)C)NC(=O)[C@H](Cc1ccc(O)cc1)NC(=O)[C@H](CCC(=O)O)NC(=O)[C@@H](NC(=O)[C@H](Cc1ccccc1)NC(=O)[C@H](CCC(=O)O)NC(=O)C(C)(C)NC(=O)[C@H](CCC(N)=O)NC(=O)[C@H](C)NC(=O)[C@H](CCCCNC(=O)COCCOCCNC(=O)COCCOCCNC(=O)CC[C@H](NC(=O)CCCCCCCCCCCCCCCCCCC(=O)O)C(=O)O)NC(=O)[C@H](CN)NC(=O)[C@H](CC(=O)O)NC(=O)[C@H](CC(C)C)NC(=O)[C@](C)(CC(C)C)NC(=O)[C@@H](NC(=O)[C@H](CO)NC(=O)[C@H](Cc1ccc(O)cc1)NC(=O)[C@H](CC(=O)O)NC(=O)[C@H](CO)NC(=O)[C@@H](NC(=O)[C@H](Cc1ccccc1)NC(=O)[C@@H](NC(=O)CNC(=O)[C@H](CCC(=O)O)NC(=O)C(C)(C)NC(=O)[C@H](N)Cc1ccc(O)cc1)[C@@H](C)O)[C@@H](C)O)[C@@H](C)CC)[C@@H](C)CC)C(=O)N[C@@H](C)C(=O)NCC(=O)NCC(=O)N1CCC[C@H]1C(=O)N[C@@H](CO)C(=O)N[C@@H](CO)C(=O)NCC(=O)N[C@@H](C)C(=O)N1CCC[C@H]1C(=O)N1CCC[C@H]1C(=O)N1CCC[C@H]1C(=O)N[C@@H](CO)C(N)=O) [Example 351] | 66.5 | 0.563 | 23.5 | 19.6
3 | [dY][Aib]EGTFTSDYSI[αMeL]LD[Dab]K([AEEA-AEEA-γGlu-C20 diacid])AQ[Aib]EFIEYLIAGGPSSGAPPPS-NH2 (N-terminus assumed; SMILES CC[C@H](C)[C@H](NC(=O)[C@H](CC(C)C)NC(=O)[C@H](Cc1ccc(O)cc1)NC(=O)[C@H](CCC(=O)O)NC(=O)[C@@H](NC(=O)[C@H](Cc1ccccc1)NC(=O)[C@H](CCC(=O)O)NC(=O)C(C)(C)NC(=O)[C@H](CCC(N)=O)NC(=O)[C@H](C)NC(=O)[C@H](CCCCNC(=O)COCCOCCNC(=O)COCCOCCNC(=O)CC[C@H](NC(=O)CCCCCCCCCCCCCCCCCCC(=O)O)C(=O)O)NC(=O)[C@H](CCN)NC(=O)[C@H](CC(=O)O)NC(=O)[C@H](CC(C)C)NC(=O)[C@](C)(CC(C)C)NC(=O)[C@@H](NC(=O)[C@H](CO)NC(=O)[C@H](Cc1ccc(O)cc1)NC(=O)[C@H](CC(=O)O)NC(=O)[C@H](CO)NC(=O)[C@@H](NC(=O)[C@H](Cc1ccccc1)NC(=O)[C@@H](NC(=O)CNC(=O)[C@H](CCC(=O)O)NC(=O)C(C)(C)NC(=O)[C@H](N)Cc1ccc(O)cc1)[C@@H](C)O)[C@@H](C)O)[C@@H](C)CC)[C@@H](C)CC)C(=O)N[C@@H](C)C(=O)NCC(=O)NCC(=O)N1CCC[C@H]1C(=O)N[C@@H](CO)C(=O)N[C@@H](CO)C(=O)NCC(=O)N[C@@H](C)C(=O)N1CCC[C@H]1C(=O)N1CCC[C@H]1C(=O)N1CCC[C@H]1C(=O)N[C@@H](CO)C(N)=O) [Example 350] | 64.1 | 0.589 | 21.8 | 10.8
4 | XXEGTFTSDYSIXLDXKAQXEFIEYLIAGGPSSGAPPPS (D-Tyr1, Aib2, αMeL13, Orn16, K17 conjugated to (2-[2-(2-Amino-ethoxy)-ethoxy]-acetyl)2-(γ-Glu)-CO-(CH2)18-CO2H, Aib20, C-terminal amide (NH2)) [Example 349] | 64.5 | 0.464 | 18.4 | 15.1
5 | XXEGTFTSDYSIXLDKKAQXEFIEXLIAGGPSSGAPPPS (D-Tyr1, Aib2, αMeL13, K17 conjugated to (2-[2-(2-Amino-ethoxy)-ethoxy]-acetyl)2-(γ-Glu)-CO-(CH2)18-CO2H, Aib20, αMeY25, C-terminal amide (NH2)) [Example 292] | 71.5 | 0.429 | 29 | 7.74
6 | XXEGTFTSDYSIXLDXKAQXEFIXYLIAGGPSSGAPPPS (D-Tyr1, Aib2, αMeL13, Orn16, K17 conjugated to (2-[2-(2-Amino-ethoxy)-ethoxy]-acetyl)2-(γ-Glu)-CO-(CH2)18-CO2H, Aib20, D-Glu24, C-terminal amide (NH2)) [Example 354] | 53.3 | 0.967 | 22.7 | 255
7 | XXEGTFTSDYSIXLDKKAQXAFIEXLIAGGPSSGAPPPS (D-Tyr1, Aib2, αMeL13, K17 conjugated to (2-[2-(2-Amino-ethoxy)-ethoxy]-acetyl)2-(γ-Glu)-CO-(CH2)18-CO2H, Aib20, αMeY25, C-terminal amide (NH2)) [Example 365] | 66.9 | 0.464 | 20.8 | 7.03
8 | XXEGTFTSDYSIXLDXKAQXAFIXYLIAGGPSSGAPPPS (D-Tyr1, Aib2, αMeL13, Orn16, K17 conjugated to (2-[2-(2-Amino-ethoxy)-ethoxy]-acetyl)2-(γ-Glu)-CO-(CH2)16-CO2H, Aib20, D-Glu24, C-terminal amide (NH2)) [Example 363] | 69.6 | 0.943 | 22.1 | 135
9 | XXEGTFTSDYSIXLDXKAQXEFIEYLIAGGPSSGAPPPS (D-Tyr1, Aib2, αMeL13, Orn16, K17 conjugated to (2-[2-(2-Amino-ethoxy)-ethoxy]-acetyl)2-(γ-Glu)-CO-(CH2)16-CO2H, Aib20, C-terminal amide (NH2)) [Example 368] | 68.9 | 0.495 | 21.3 | 47.9
10 | YXEGTFTSDYSIXLDKKAQXEFIEXLIAGGPSSGAPPPS (Aib2, αMeL13, K17 conjugated to (2-[2-(2-Amino-ethoxy)-ethoxy]-acetyl)2-(γ-Glu)-CO-(CH2)18-CO2H, Aib20, αMeY25, C-terminal amide (NH2)) [Example 367] | 89.7 | 0.289 | 70.6 | 6.66
11 | XXEGTFTSDYSIXLDKKAQXAFIXYLIAGGPSSGAPPPS (D-Tyr1, Aib2, αMeL13, K17 conjugated to (2-[2-(2-Amino-ethoxy)-ethoxy]-acetyl)2-(γ-Glu)-CO-(CH2)18-CO2H, Aib20, D-Glu24, C-terminal amide (NH2)) [Example 352] | 63.5 | 0.552 | 17.4 | 4.21
12 | XXEGTFTSDYSIXLDXKAQXEFIEYLIAGGPSSGAPPPS (D-Tyr1, Aib2, αMeL13, Orn16, K17 conjugated to (2-[2-(2-Amino-ethoxy)-ethoxy]-acetyl)-(γ-Glu)-CO-(CH2)18-CO2H, Aib20, C-terminal amide (NH2)) [Example 371] | 62.5 | 0.27 | 21.7 | 14.2
13 | XXEGTFTSDYSIXLDXKAQXEFVEYLIAGGPSSGAPPPS (D-Tyr1, Aib2, αMeL13, Orn16, K17 conjugated to (2-[2-(2-Amino-ethoxy)-ethoxy]-acetyl)2-(γ-Glu)-CO-(CH2)18-CO2H, Aib20, C-terminal amide (NH2)) [Example 359] | 69.7 | 0.496 | 28.4 | 84.1
14 | XXEGTFTSDYSIXLDXKAQXDFIEYLIAGGPSSGAPPPS (D-Tyr1, Aib2, αMeL13, Orn16, K17 conjugated to (2-[2-(2-Amino-ethoxy)-ethoxy]-acetyl)2-(γ-Glu)-CO-(CH2)18-CO2H, Aib20, C-terminal amide (NH2)) [Example 369] | 58.8 | 0.381 | 19.9 | 41.4
15 | XXEGTFTSDYSIXLDKKAQXEFIEXLIAGGPSSGAPPPS (D-Tyr1, Aib2, αMeL13, K17 conjugated to (2-[2-(2-Amino-ethoxy)-ethoxy]-acetyl)-(γ-Glu)-CO-(CH2)18-CO2H, Aib20, αMeY25, C-terminal amide (NH2)) [Example 372] | 69.1 | 0.379 | 32.9 | 9.81
16 | XXEGTFTSDYSIXLDKKAQXAFIEXLIAGGPSSGAPPPS (D-Tyr1, Aib2, αMeL13, K17 conjugated to (2-[2-(2-Amino-ethoxy)-ethoxy]-acetyl)-(γ-Glu)-CO-(CH2)18-CO2H, Aib20, αMeY25, C-terminal amide (NH2)) [Example 373] | 65.6 | 0.336 | 22.9 | 9.54
17 | XXEGTFTSDYSIXLDXKAQXAFIXYLIAGGPSSGAPPPS (D-Tyr1, Aib2, αMeL13, Orn16, K17 conjugated to (2-[2-(2-Amino-ethoxy)-ethoxy]-acetyl)2-(γ-Glu)-CO-(CH2)18-CO2H, Aib20, D-Glu24, C-terminal amide (NH2)) [Example 291] | 65 | 0.466 |  | > 10000
18 | XXEGTFTSDYSIXLDXKAQXAFVEYLIAGGPSSGAPPPS (D-Tyr1, Aib2, αMeL13, Orn16, K17 conjugated to (2-[2-(2-Amino-ethoxy)-ethoxy]-acetyl)2-(γ-Glu)-CO-(CH2)18-CO2H, Aib20, C-terminal amide (NH2)) [Example 358] | 72.3 | 0.414 | 21.4 | 9.38
19 | XXEGTFTSDYSIXLDXKAQXEFIXYLIEGGPSSGAPPPS (D-Tyr1, Aib2, αMeL13, Orn16, K17 conjugated to (2-[2-(2-Amino-ethoxy)-ethoxy]-acetyl)2-(γ-Glu)-CO-(CH2)18-CO2H, Aib20, D-Glu24, C-terminal amide (NH2)) [Example 355] | 50.6 | 1.76 | 18.3 | 363
20 | XXEGTFTSDYSIXLDXKAQXEFIEXLIAGGPSSGAPPPS (D-Tyr1, Aib2, αMeL13, Orn16, K17 conjugated to (2-[2-(2-Amino-ethoxy)-ethoxy]-acetyl)2-(γ-Glu)-CO-(CH2)18-CO2H, Aib20, αMeY25, C-terminal amide (NH2)) [Example 293] | 70.6 | 0.368 | 29.5 | 7.19
21 | XXEGTFTSDYSIXLDXKAQXAFIEXLIAGGPSSGAPPPS (D-Tyr1, Aib2, αMeL13, Orn16, K17 conjugated to (2-[2-(2-Amino-ethoxy)-ethoxy]-acetyl)2-(γ-Glu)-CO-(CH2)18-CO2H, Aib20, αMeY25, C-terminal amide (NH2)) [Example 366] | 67.6 | 0.409 | 21.2 | 5.57
22 | XXEGTFTSDYSIXLDKKAQXEFIXYLIEGGPSSGAPPPS (D-Tyr1, Aib2, αMeL13, K17 conjugated to (2-[2-(2-Amino-ethoxy)-ethoxy]-acetyl)2-(γ-Glu)-CO-(CH2)18-CO2H, Aib20, D-Glu24, C-terminal amide (NH2)) [Example 353] | 63.1 | 1.96 | 23 | 559
23 | [dY][Aib]EGTFTSDYSI[αMeL]LD[Dap]K([AEEA-AEEA-γGlu-C20 diacid])AQ[Aib]AFIEYLIAGGPSSGAPPPS-NH2 (N-terminus assumed; SMILES CC[C@H](C)[C@H](NC(=O)[C@H](CC(C)C)NC(=O)[C@H](Cc1ccc(O)cc1)NC(=O)[C@H](CCC(=O)O)NC(=O)[C@@H](NC(=O)[C@H](Cc1ccccc1)NC(=O)[C@H](C)NC(=O)C(C)(C)NC(=O)[C@H](CCC(N)=O)NC(=O)[C@H](C)NC(=O)[C@H](CCCCNC(=O)COCCOCCNC(=O)COCCOCCNC(=O)CC[C@H](NC(=O)CCCCCCCCCCCCCCCCCCC(=O)O)C(=O)O)NC(=O)[C@H](CN)NC(=O)[C@H](CC(=O)O)NC(=O)[C@H](CC(C)C)NC(=O)[C@](C)(CC(C)C)NC(=O)[C@@H](NC(=O)[C@H](CO)NC(=O)[C@H](Cc1ccc(O)cc1)NC(=O)[C@H](CC(=O)O)NC(=O)[C@H](CO)NC(=O)[C@@H](NC(=O)[C@H](Cc1ccccc1)NC(=O)[C@@H](NC(=O)CNC(=O)[C@H](CCC(=O)O)NC(=O)C(C)(C)NC(=O)[C@H](N)Cc1ccc(O)cc1)[C@@H](C)O)[C@@H](C)O)[C@@H](C)CC)[C@@H](C)CC)C(=O)N[C@@H](C)C(=O)NCC(=O)NCC(=O)N1CCC[C@H]1C(=O)N[C@@H](CO)C(=O)N[C@@H](CO)C(=O)NCC(=O)N[C@@H](C)C(=O)N1CCC[C@H]1C(=O)N1CCC[C@H]1C(=O)N1CCC[C@H]1C(=O)N[C@@H](CO)C(N)=O) [Example 348] | 47.7 | 0.66 | 19.8 | 3.46
